Experimental data published in US4790988A, “Method and compositions for the treatment of thrombotic episodes” (University of Florida, priority 1987, dated 1988).

Tested on: thrombus in the circumflex coronary artery
Experiment: Electrically induced coronary thrombus model in dogs, restoration of blood flow
Format: in vivo
Conditions: infused into a peripheral vein for 30 minutes at 10 microgram/kg/min; mongrel dogs
Procedure: A thrombus was introduced into the circumflex coronary artery of mongrel dogs by electrical current. Blood flow in the artery was measured by a commercially available electromagnetic flow probe. After stable blood flow for five minutes without electrical current, homogeneous recombinant human tissue plasminogen activator (Genentech) was infused into a peripheral vein for 30 minutes at a dose of 10 microgram/kg/min. In another cohort of animals, pentapeptide 6A was infused intra-arterially proximal to the occlusion at a dose of 5 micromoles/min for 20 min.

B1: tissue plasminogen activator: homogeneous recombinant human tissue plasminogen activator (Genentech) (protein, UniProt P00750 36-562, looked up)
Tissue-type plasminogen …: SYQVICRDEKTQMIYQQHQSWLRPVLRSNRVEYCWCNSGRAQCHSVPVKSCSEPRCFNGGTCQQALYFSDFVCQCPEGFAGKCCEIDTRATCYEDQGISYRGTWSTAESGAECTNWNSSALAQKPYSGRRPDAIRLGLGNHNYCRNPDRDSKPWCYVFKAGKYSSEFCSTPACSEGNSDCYFGNGSAYRGTHSLTESGASCLPWNSMILIGKVYTAQNPSAQALGLGKHNYCRNPDGDAKPWCHVLKNRRLTWEYCDVPSCSTCGLRQYSQPQFRIKGGLFADIASHPWQAAIFAKHRRSPGERFLCGGILISSCWILSAAHCFQERFPPHHLTVILGRTYRVVPGEEEQKFEVEKYIVHKEFDDDTYDNDIALLQLKSDSSRCAQESSVVRTVCLPPADLQLPDWTECELSGYGKHEALSPFYSERLKEAHVRLYPSSRCTSQHLLNRTVTDNMLCAGDTRSGGPQANLHDACQGDSGGPLVCLNDGRMTLVGIISWGLGCGQKDVPGVYTKVTNYLDWIRDNMRP
  animals with coronary blood flow restored: 5 of 7
  duration reflow persisted: 20.0 ± 10.9 min
  peak restored coronary blood flow (mean±SD): 22 ± 12 mL/min
  time to flow restoration: 12.3 ± 9.1 min
